B1: gravin fragment residues 265-556 (protein)
chain: KEEGEEKQEKEPSKSAESPTSPVTSETGSTFKKFFTQGWAGWRKKTSFRKPKEDEVEASEKKKEQEPEKVDTEEDGKAEVASEKLTASEQAHPQEPAESAHEPRLSAEYEKVELPSEEQVSGSQGPSEEKPAPLATEVFDEKIEVHQEEVVAEVHVSTVEERTEEQKTEVEETAGSVPAEELVGMDAEPQEAEPAKELVKLKETCVSGEDPTQGADLSPDEKVLSKPPEGVVSEVEMLSSQERMKVQGSPLKKLFTSTGLKKLSGKKQKGKRGGGDEESGEHTQVPADSPDS
B2: gravin fragment residues 1526-1780 (protein)
chain: VAIEDLEPENGILELETKSSKLVQNIIQTAVDQFVRTEETATEMLTSELQTQAHVIKADSQDAGQETEKEGEEPQASAQDETPITSAKEESESTAVGQAHSDISKDMSEASEKTMTVEVEGSTVNDQQLEEVVLPSEEEGGGAGTKSVPEDDGHALLAERIEKSLVEPKEDEKGDDVDDPENQNSALADTDASGGLTKESPDTNGPKQKEKEDAQEVELQEGKVHSESDKAITPQAQEELQKQERESAKSELTES

Experiments:
[1] = target: recombinant fragment of RIIα (RII 1-45); assay: SPR (IAsys), gravin 1526-1780 coupled to the cuvette, RIIα 1-45 at 25 to 150 nM

Row | Binder | IC50 of inhibition of PKC activity toward peptide substrate … (PKC βII) [µM] | Kd [1] [nM] | kon [1] [M⁻¹ s⁻¹]
1 | B1 | 0.5 | – | –
2 | B2 | – | 100 | 160000

Source: US6090929
